For one sequence, binding signal (% of N protein signal) results are on record in PMC9688528.

What all share (assay): target-induced aptamer displacement, RDV release by UV-vis at 247 nm
In one data set the test system is hemoglobin (HGB). The following applies: 2 uM HGB; 3'-SH on aptamer; 5'-COOH on complementary strand; Release assay buffer and temperature not given; Au-DNA stored in PBS (137 mM NaCl, 2.7 mM KCl, 10 mM Na2HPO4, 1.75 mM KH2PO4, 50 mM MgCl2, pH 7.4).
In the next data set the test system is cytochrome c. The conditions noted are these: 2 uM cytochrome c; 3'-SH on aptamer; 5'-COOH on complementary strand; Release assay buffer and temperature not given; Au-DNA stored in PBS (137 mM NaCl, 2.7 mM KCl, 10 mM Na2HPO4, 1.75 mM KH2PO4, 50 mM MgCl2, pH 7.4).
The subject of data set [1] is alkaline phosphatase (AKP). The following applies: 20 U/mL AKP; 3'-SH on aptamer; 5'-COOH on complementary strand; Release assay buffer and temperature not given; Au-DNA stored in PBS (137 mM NaCl, 2.7 mM KCl, 10 mM Na2HPO4, 1.75 mM KH2PO4, 50 mM MgCl2, pH 7.4).
Another data set has as its system immunoglobulin G (IgG). The following applies: 2 uM IgG; 3'-SH on aptamer; 5'-COOH on complementary strand; Release assay buffer and temperature not given; Au-DNA stored in PBS (137 mM NaCl, 2.7 mM KCl, 10 mM Na2HPO4, 1.75 mM KH2PO4, 50 mM MgCl2, pH 7.4).
A further data set deals with fibrinogen (FIB). The conditions noted are these: 2 uM FIB; 3'-SH on aptamer; 5'-COOH on complementary strand; Release assay buffer and temperature not given; Au-DNA stored in PBS (137 mM NaCl, 2.7 mM KCl, 10 mM Na2HPO4, 1.75 mM KH2PO4, 50 mM MgCl2, pH 7.4).

Regarding “GCTGGATGTCGCTTACGACAATATTCCTTAGGGGCACCGCTACATTGACACATCCAGC / TTGTACTGGCTCATAGCTGGATGTGTCAATGTAGCGGTGCCCCTAAGGAATATTGTCGTAAGCG”, the binding signal (% of N protein signal) is 6.22 in the data set with hemoglobin (HGB); 9.13 in the data set with cytochrome c; 11.6 in data set [1]; 7.05 with immunoglobulin G (IgG); 4.56 in the data set on fibrinogen (FIB).
